Assay results as given in publication PMC5040351 (Arteriosclerosis, thrombosis, and vascular biology, 2016).

Experiments:
[1] = target: endogenous calnexin (CNX) (human (endogenous in HEK293T and HeLa)) (UniProt P27824); assay: co-IP
[2] = target: ABCA1-FLAG (ATP-Binding Cassette A1 cholesterol transporter, FLAG-tagged) (UniProt O95477); assay: co-IP
[3] = target: HA-tagged calnexin with deletion of the lumenal repeat segment (CNXΔ276-409) (UniProt P27824); assay: co-IP
[4] = target: myristoylated NefSF2 protein (HIV-1 SF2, UniProt P03407 1-210, myristoylated); assay: SPR

## Nef K4A (single lysine mutant of Nef_(cons)) (natural protein)
[1]
  percent reduction of co-precipitated Nef against WT Nef: 80%

## Nef K4,7A (double lysine mutant of Nef_(cons)) (natural protein)
[2]
  percent reduction of co-precipitated Nef against wild-type Nef: 30%

## HIV-1 Nef expressed from the Nef_(cons) vector (wild type) (natural protein)
[3]
  percent reduction of co-precipitated Nef against WT CNX: 40%

## Nef K7A (single lysine mutant of Nef_(cons)) (natural protein)
[1]
  percent reduction of co-precipitated Nef against WT Nef: 70%

B1: cytoplasmic tail of calnexin (CNX-CT), recombinant (domain or fragment, UniProt P27824 503-592, looked up)
chain: CSGKKQTSGMEYKKTDAPQPDVKEEEEEKEEEKDKGDEEEEGEEKLEEKQKSDAEEDGGTVSQEEEDRKPKAEEDEILNRSPRNRKPRRE
[4]
  Kd: 9.4 nM
  koff: 0.00857 s⁻¹
  kon: 908000 M⁻¹ s⁻¹
